B1: TPR t1 (parent)
chain: GACCAAUCUGCCCUCAGAGCUCGAGAACAUCUUCGGAUGCAGAGGAGGCAGGCUUCGGUGGCGCGAUAGCGCCAACGUCCUCAACCUCCAAUGCAUCCCACCACAUGAUGAUGCCUGAAGAGCCUUGGUUUUUUG

The values below come from the RNAGym collection of RNA variant scans (doi:10.1073/pnas.2313332121).

This data set covers variants of B1. Briefly: polymerase ribozyme fitness, log enrichment relative to wild type (log ratio); higher = more active; in vitro selection for triplet polymerase activity. In outline:
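Input and output libraries were sequenced on Illumina after a single in vitro selection round, run in triplicate on PCR-built, transcribed mutant libraries of each subunit of a heterodimeric triplet polymerase ribozyme. Selection annealed libraries to a biotinylated primer, the partner subunit and triplets, incubated them frozen at −7 °C, then gel-excised extended constructs for streptavidin-bead capture and RT-PCR. Genotypes with ≥10 input reads and ≥1 read per output were kept. Fitness is the logarithm, taken in base 2, of genotype enrichment divided by wild-type enrichment, using inverse-variance-weighted replicate averages.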
With C28G U32C G69C U78C C86G G117U C123U, the “polymerase ribozyme fitness (log ratio)” value was -7.36.

Consider A27C G57U C124G, for which the “polymerase ribozyme fitness (log ratio)” value is -1.48.

Turning to C28U A37U G44U A90C, the “polymerase ribozyme fitness (log ratio)” value was -3.61.

Turning to C28A G127C, the “polymerase ribozyme fitness (log ratio)” value was -5.95.

For A27U G52A C73A A91C U112A, the “polymerase ribozyme fitness (log ratio)” value was -4.52.

With A27U G44U, the “polymerase ribozyme fitness (log ratio)” value is -3.87.

For the variant C28A C124U, the “polymerase ribozyme fitness (log ratio)” value is -2.12.

As to A27U C123A, the “polymerase ribozyme fitness (log ratio)” value was -1.74.

As for A27G G51A G61C, the “polymerase ribozyme fitness (log ratio)” value was -4.

In the case of C28G G47U C53U, the “polymerase ribozyme fitness (log ratio)” value was -4.48.

For A27G C64A C115G, the “polymerase ribozyme fitness (log ratio)” value is -7.5.

As for C28G C56U C80U, the “polymerase ribozyme fitness (log ratio)” value is -4.97.

On to A27C G45C, for which the “polymerase ribozyme fitness (log ratio)” value was -4.29.

Turning to A27U G35A C49U C88A A90G C98A U109A, the “polymerase ribozyme fitness (log ratio)” value is -4.79.

As for C28A G39U U54C, the “polymerase ribozyme fitness (log ratio)” value is -4.55.

In the case of C28A A43G G51U A90G G110A, the “polymerase ribozyme fitness (log ratio)” value was -4.93.

On to A27G G45U G71U U96G G120U, for which the “polymerase ribozyme fitness (log ratio)” value is -4.73.

With A27U A74U U87A, the “polymerase ribozyme fitness (log ratio)” value is -2.97.

With C28G U92C C123A, the “polymerase ribozyme fitness (log ratio)” value was -3.8.

Consider C28G A37C A91C, for which the “polymerase ribozyme fitness (log ratio)” value is -6.42.

For A27C G47U, the “polymerase ribozyme fitness (log ratio)” value is -4.29.

Consider C28A C72U A100C G120A, for which the “polymerase ribozyme fitness (log ratio)” value is -4.36.

Take A27U G47U C86U G110C: the “polymerase ribozyme fitness (log ratio)” value is -6.45.

A27U C72A U96A: the “polymerase ribozyme fitness (log ratio)” value was -4.21.

As to A27U U112C, the “polymerase ribozyme fitness (log ratio)” value was -1.46.

Regarding A27U C40G G45U A119U, the “polymerase ribozyme fitness (log ratio)” value is -5.54.

For C28G A37C, the “polymerase ribozyme fitness (log ratio)” value was -3.7.

Consider C28G A37U, for which the “polymerase ribozyme fitness (log ratio)” value is -2.45.

As for A27G G45A A83G U130G, the “polymerase ribozyme fitness (log ratio)” value was -4.37.

Turning to A27U G120U, the “polymerase ribozyme fitness (log ratio)” value was -2.65.

Turning to A27U G120A, the “polymerase ribozyme fitness (log ratio)” value is -1.65.

As for C28G C56U, the “polymerase ribozyme fitness (log ratio)” value was -2.39.

C28G C56G: the “polymerase ribozyme fitness (log ratio)” value was -3.01.

Turning to C28G G110A, the “polymerase ribozyme fitness (log ratio)” value is -1.49.

On to A27U G57U C73G U78C U96A A111U, for which the “polymerase ribozyme fitness (log ratio)” value was -5.99.

In the case of A27U G60A C62U G120C, the “polymerase ribozyme fitness (log ratio)” value is -2.69.

Regarding A27G C70U U131A, the “polymerase ribozyme fitness (log ratio)” value is -3.2.

In the case of A27G A90U U116C, the “polymerase ribozyme fitness (log ratio)” value is -6.7.

Turning to A27G A100U G120U, the “polymerase ribozyme fitness (log ratio)” value was -3.21.

For the variant C28G G48C A83G A84U G120C, the “polymerase ribozyme fitness (log ratio)” value is -2.29.

Regarding A27G G51U G61A G127C, the “polymerase ribozyme fitness (log ratio)” value was -6.98.

On to C28A A74C, for which the “polymerase ribozyme fitness (log ratio)” value is -4.96.

For the variant C28G A43G G45A C79A C115U G117U, the “polymerase ribozyme fitness (log ratio)” value is -5.19.

On to C28G C40U C53U C56G A91C C115U U129A, for which the “polymerase ribozyme fitness (log ratio)” value was -5.15.

In the case of A27U G36A A41C C56A G61A G120A, the “polymerase ribozyme fitness (log ratio)” value was -5.6.

With A27U C56A C70U U96A, the “polymerase ribozyme fitness (log ratio)” value is -5.71.

With A27U G117U, the “polymerase ribozyme fitness (log ratio)” value is -4.76.

Regarding A27U G36C G135U, the “polymerase ribozyme fitness (log ratio)” value is -5.51.

Take A27C G77A: the “polymerase ribozyme fitness (log ratio)” value was -4.66.

For A27U A46G C72U G120A, the “polymerase ribozyme fitness (log ratio)” value is -2.7.

As for A27G U38A C73U A83C, the “polymerase ribozyme fitness (log ratio)” value was -3.53.

With A27U C40G C82G, the “polymerase ribozyme fitness (log ratio)” value is -5.92.

On to C28G C40A G71A C94U G110C, for which the “polymerase ribozyme fitness (log ratio)” value was -1.03.

Turning to A27U U96A, the “polymerase ribozyme fitness (log ratio)” value is -4.07.

As for A27U U116G, the “polymerase ribozyme fitness (log ratio)” value is -5.63.

For the variant A27U C49U C79G C86U, the “polymerase ribozyme fitness (log ratio)” value is -4.94.

For the variant C28G C56G C86U C124U, the “polymerase ribozyme fitness (log ratio)” value is -1.07.

As to A27C G57A C123A, the “polymerase ribozyme fitness (log ratio)” value was -4.55.

Turning to C28G G39U C53U G63C U78C C124A, the “polymerase ribozyme fitness (log ratio)” value was -3.85.

Consider A27G A41G C86A, for which the “polymerase ribozyme fitness (log ratio)” value is -2.64.

For the variant A27U C76A G113A A119U, the “polymerase ribozyme fitness (log ratio)” value was -6.73.

In the case of C28G A50C G61A C88A, the “polymerase ribozyme fitness (log ratio)” value was -3.77.

On to A27C G71U, for which the “polymerase ribozyme fitness (log ratio)” value is -3.

Turning to A27G G69U A74U, the “polymerase ribozyme fitness (log ratio)” value is -2.9.

Consider A27G G61A, for which the “polymerase ribozyme fitness (log ratio)” value was -1.92.

For A27U G47A U59A U106G U133G, the “polymerase ribozyme fitness (log ratio)” value is -4.03.

Take C28U A90U A111U: the “polymerase ribozyme fitness (log ratio)” value was -5.21.

A27G A41G G71A: the “polymerase ribozyme fitness (log ratio)” value is -2.99.

With A27C G39A C62A C124G, the “polymerase ribozyme fitness (log ratio)” value was -4.04.

Turning to A27G C102U A103G U112G, the “polymerase ribozyme fitness (log ratio)” value was -7.77.

For C28U A105C, the “polymerase ribozyme fitness (log ratio)” value is -4.77.

As for C28G C101U, the “polymerase ribozyme fitness (log ratio)” value was -3.08.

Consider A27G C40G G107C C115U G120U U131A, for which the “polymerase ribozyme fitness (log ratio)” value is -5.69.

As for C28G U32G C62A A121C, the “polymerase ribozyme fitness (log ratio)” value is -6.19.

Turning to C28G C73G C104A A111C, the “polymerase ribozyme fitness (log ratio)” value is -4.53.

As for C28G G44U A111C G117C, the “polymerase ribozyme fitness (log ratio)” value is -6.59.

On to C28G C114U, for which the “polymerase ribozyme fitness (log ratio)” value was -5.68.

C28U A29U G45C G61A: the “polymerase ribozyme fitness (log ratio)” value was -3.76.

On to A27C G42C G71U G120C U126A U130G, for which the “polymerase ribozyme fitness (log ratio)” value was -6.82.

Turning to C28G C49U U92A G110A, the “polymerase ribozyme fitness (log ratio)” value was -5.35.

Consider A27G C56U, for which the “polymerase ribozyme fitness (log ratio)” value was -1.35.

Turning to C28G A37G G48A C104U C123A, the “polymerase ribozyme fitness (log ratio)” value was -2.85.

Consider C28G C98U, for which the “polymerase ribozyme fitness (log ratio)” value is -4.78.
